We go through 14 molecules from patent US20210206856A1 (PANDION OPERATIONS, published 2021).

The target of assay [1] is T1, recombinant mouse MAdCAM-1 (mouse, UniProt Q61826 22-365, limits assumed).
T1 construct: also called mMAdCAM-1; mouse MAdCAM-Fc
T1 sequence (looked up): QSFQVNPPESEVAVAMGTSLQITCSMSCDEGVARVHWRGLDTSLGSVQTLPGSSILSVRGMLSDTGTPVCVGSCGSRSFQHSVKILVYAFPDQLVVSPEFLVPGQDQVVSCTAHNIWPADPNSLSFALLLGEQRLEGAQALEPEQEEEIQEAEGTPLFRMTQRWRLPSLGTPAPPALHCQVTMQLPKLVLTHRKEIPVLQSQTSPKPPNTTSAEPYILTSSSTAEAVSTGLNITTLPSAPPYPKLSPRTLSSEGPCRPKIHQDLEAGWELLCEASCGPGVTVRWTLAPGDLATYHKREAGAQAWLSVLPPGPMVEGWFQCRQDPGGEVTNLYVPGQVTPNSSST
Nature of the assay: Octet.

In assay [2] the target is T2, human MAdCAM expressed on cells (human, UniProt Q13477 19-382).
T2 construct: whole, on cells; also called MADCAM1
T2 sequence (looked up): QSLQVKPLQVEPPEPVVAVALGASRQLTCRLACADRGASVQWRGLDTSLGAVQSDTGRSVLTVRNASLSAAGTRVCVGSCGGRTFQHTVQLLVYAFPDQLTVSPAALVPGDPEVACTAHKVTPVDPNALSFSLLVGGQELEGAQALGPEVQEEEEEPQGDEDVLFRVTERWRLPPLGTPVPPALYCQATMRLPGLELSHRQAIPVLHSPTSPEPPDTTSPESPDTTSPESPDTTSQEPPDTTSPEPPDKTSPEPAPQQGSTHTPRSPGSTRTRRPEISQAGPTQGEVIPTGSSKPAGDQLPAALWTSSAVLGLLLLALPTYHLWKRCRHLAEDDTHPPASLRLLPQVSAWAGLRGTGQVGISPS
Nature of the assay: cell binding.

The target in assay [3] is T3, mouse MAdCAM expressed on cells (mouse, UniProt Q61826 22-405).
T3 construct: whole, on cells
T3 sequence (looked up): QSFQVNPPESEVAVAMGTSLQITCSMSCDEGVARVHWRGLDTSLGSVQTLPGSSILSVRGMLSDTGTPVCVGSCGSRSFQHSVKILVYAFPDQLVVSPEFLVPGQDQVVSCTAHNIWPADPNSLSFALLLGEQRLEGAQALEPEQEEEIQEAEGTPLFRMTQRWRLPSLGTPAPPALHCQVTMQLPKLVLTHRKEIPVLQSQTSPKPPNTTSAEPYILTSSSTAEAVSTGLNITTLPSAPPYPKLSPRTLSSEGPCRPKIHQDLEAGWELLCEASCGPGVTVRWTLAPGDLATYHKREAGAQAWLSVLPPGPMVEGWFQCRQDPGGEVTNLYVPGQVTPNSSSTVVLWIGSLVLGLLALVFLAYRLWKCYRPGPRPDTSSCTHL
Description: cell binding.

In another assay the target is T4, mouse PD-1 on cells (mouse, UniProt Q02242 25-288).
T4 sequence (looked up): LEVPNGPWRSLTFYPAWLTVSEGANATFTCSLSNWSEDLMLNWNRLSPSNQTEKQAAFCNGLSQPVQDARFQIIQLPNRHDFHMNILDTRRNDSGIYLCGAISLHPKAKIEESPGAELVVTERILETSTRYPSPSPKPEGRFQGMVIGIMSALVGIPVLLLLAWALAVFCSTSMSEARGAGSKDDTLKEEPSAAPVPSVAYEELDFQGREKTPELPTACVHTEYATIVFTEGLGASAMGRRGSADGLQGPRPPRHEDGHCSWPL
Description: cell-based or functional assay.

Where only a bound is given, the exact number is not on record here.

B1: MAdCAM Antibody Table 2 Clone 22 (antibody, human IgG1, V domains shown)
VH: EVQLLESGGGLVQPGGSLRLSCAASGFTFDDYAMHWVRQAPGKGLEWVSGISWNSGSIGYADSVKGRFTISRDNSKNTLYLQMNSLRAEDTAVYYCAKDIVAAGHYYYGMDVWGQGTTVTVSS
VL: DIQMTQSPSSLSASVGDRVTITCQASQDISNYLNWYQQKPGKAPKLLIYDASNLETGVPSRFSGSGSGTDFTLTISSLQPEDFATYYCQQSYSTPLTFGGGTKVEIK
In the case of B1, the binding result in assay [1] is recorded as “no binding”; in assay [2], “binds”; in assay [3] it was “no binding”.

B2: MAdCAM Antibody Table 2 Clone 23 (antibody, human IgG1, V domains shown)
VH: EVQLLESGGGLVQPGGSLRLSCAASGFTFDDYAMHWVRQAPGKGLEWVSYIDTSSSHLYYADSVKGRFTISRDNSKNTLYLQMNSLRAEDTAVYYCARDEAAAGYYGMDVWGQGTTVTVSS
VL: DIQMTQSPSSLSASVGDRVTITCQAGQDISNYLNWYQQKPGKAPKLLIYDASNLETGVPSRFSGSGSGTDFTLTISSLQPEDFATYYCQQTYSTPITFGQGTKLEIK
For B2, the binding result in assay [1] is “no binding”; in assay [2], “binds”; in assay [3] it was “no binding”.

B3: MAdCAM Antibody Table 2 Clone 46 (antibody, human IgG1, V domains shown)
VH: EVQLLESGGGLVQPGGSLRLSCAASGFSFSSYTMNWVRQAPGKGLEWVSFITSSSRTIYYADSVKGRFTISRDNSKNTLYLQMNSLRAEDTAVYYCARDRRGDYGDSWYFDLWGRGTLVTVSS
VL: EIVMTQSPATLSVSPGERATLSCRASQSVRNYLAWYQQKPGQAPRLLIYGASTRATGIPARFSGSGSGTEFTLTISSLQSEDFAVYYCQQYGSSPLTFGGGTKVEIK
Turning to B3, the binding result in assay [1] is listed as “no binding”; in assay [2] it was “binds”; in assay [3], “no binding”.

B4: PD1AB7 (antibody, IgG1, V domains shown)
VH: QVQLVQSGAEVKKPGASVKVSCKASGYSFTGHYIHWVRQAPGQGLEWMGIINPNGGSTTYAQKLQGRVTMTRDTSTSTVYMELSSLRSEDTAVYYCARGKFDFYGDYVTAFDIWGQGTMVTVSS
VL: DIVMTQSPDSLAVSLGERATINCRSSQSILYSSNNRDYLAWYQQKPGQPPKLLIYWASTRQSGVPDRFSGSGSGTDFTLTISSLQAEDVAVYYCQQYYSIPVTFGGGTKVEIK
With B4, the “Mouse agonist-CTG: IC50, IgG1” value in the assay with mouse PD-1 on cells is less than 10 nM.

B5: PD1AB18 (antibody, IgG1, V domains shown)
VH: QVQLVQSGAEVKKPGASVKVSCKASGYTFTDYAMHWVRQAPGQGLEWMGWLNPNSGNTGYAPKFQGRVTMTRDTSTSTVYMELSSLRSEDTAVYYCAAGLFIWGQGTMVTVSS
VL: DIQMTQSPSSLSASVGDRVTITCRASQSINRWLAWYQQKPGKAPKLLIYDASSLESGVPSRFSGSGSGTDFTLTISSLQPEDFATYYCQQSYSIPITFGQGTRLEIK
Consider B5, for which the “Mouse agonist-CTG: IC50, IgG1” value in the assay with mouse PD-1 on cells is less than 10 nM.

B6: MAdCAM Antibody Table 2 Clone 65 (antibody, human IgG1, V domains shown)
VH: QVQLVQSGAEVKKPGASVKVSCKASGYTFTSYDINWVRQAPGQGLEWMGWMNPNSGNTGYAQKFQGRVTMTRDTSTSTVYMELSSLRSEDTAVYYCAKDSDYSNLLWDYWGQGTLVTVSS
VL: DIQMTQSPSSLSASVGDRVTITCRASQDITNDLGWYQQKPGKAPKLLIYQASSLESGVPSRFSGSGSGTDFTLTISSLQPEDFATYYCQQSYTIPLTFGQGTKVEIK
As for B6, the binding result was “no binding” in assay [1], “binds” in assay [2] and “no binding” in assay [3].

B7: PD1AB20 (antibody, IgG1, V domains shown)
VH: QVQLVQSGAEVKKPGASVKVSCKASGYTFSDHYMHWVRQAPGQGLEWMGTINPSGGRTSYAQKFQGRVTMTRDTSTSTVYMELSSLRSEDTAVYYCAADNGHASGWLYYYGMDVWGQGTTVTVSS
VL: DIQMTQSPSSLSASVGDRVTITCRASQSISNWVAWYQQKPGKAPKLLIYRASTLQSGVPSRFSGSGSGTDFTLTISSLQPEDFATYYCQQSHSLPLTFGPGTKVDIK
Regarding B7, the “Mouse agonist-CTG: IC50, IgG1” value with mouse PD-1 on cells was less than 10 nM.

B8: PD1AB6 (antibody, IgG1, V domains shown)
VH: EVQLLESGGGLVQPGGSLRLSCAASGFTFSNYPMHWVRQAPGKGLEWVALISDDGTNEHYADSVKGRFTISRDNSKNTLYLQMNSLRAEDTAVYYCARDSKFANYYYYYDMDVWGQGTTVTVSS
VL: DIQMTQSPSSLSASVGDRVTITCRASQSINNYLSWYQQKPGKAPKLLIYDASNLETGVPSRFSGSGSGTDFTLTISSLQPEDFATYYCQQSYSTPLTFGPGTKVDIK
Consider B8, for which the “Mouse agonist-CTG: IC50, IgG1” value with mouse PD-1 on cells is less than 10 nM.

B9: MAdCAM Antibody Table 2 Clone 24 (antibody, human IgG1, V domains shown)
VH: EVQLVESGGGLVKPGGSLRLSCAASGFTFSSYWMSWVRQAPGKGLEWVSRISSDGRITTYAAPVKGRFTISRDDSKNTLYLQMNSLKTEDTAVYYCARGTSYCTGGVCDIDYWGQGTLVTVSS
VL: DIQMTQSPSSLSASVGDRVTITCRASQSIGRNLNWYQQKPGKAPKLLIYSASNLQSGVPSRFSGSGSGTDFTLTISSLQPEDFATYYCQQSYSIPLTFGPGTKVDIK
Take B9: the results for the binding result in assay [1], in assay [2] and in assay [3] were “no binding”, “binds” and “no binding”, respectively.

B10: MAdCAM Antibody Table 2 Clone 29 (antibody, human IgG1, V domains shown)
VH: EVQLLESGGGLVQPGGSLRLSCAASGFTFSSYQMSWVRQAPGKGLEWVSYISSSSTYTNYADSVKGRFTISRDNSKNTLYLQMNSLRAEDTAVYYCARANSSSWYDWYFDLWGQGTLVTVSS
VL: not shown
For the molecule B10, the values for the binding result in assay [1], in assay [2] and in assay [3] were “no binding”, “binds” and “no binding”, respectively.

B11: PD1AB22 (antibody, IgG1, V domains shown)
VH: QVQLVQSGAEVKKPGASVKVSCKASGYTFSGYYMHWVRQAPGQGLEWMGVINPSGGSTSYAQKFQGRVTMTRDTSTSTVYMELSSLRSEDTAVYYCAEGFDYWGQGTLVTVSS
VL: EIVMTQSPATLSVSPGERATLSCRASQGVGRSLAWYQQKPGQAPRLLIYGASTRATGIPARFSGSGSGTEFTLTISSLQSEDFAVYYCQQYYTTPITFGQGTRLEIK
As for B11, in the assay with mouse PD-1 on cells, the “Mouse agonist-CTG: IC50, IgG1” value is less than 10 nM.

B12: PD1AB4 (antibody, IgG1, V domains shown)
VH: QVQLVQSGAEVKKPGASVKVSCKASGYSFTTYYMHWVRQAPGQGLEWMGIINPSGGSTSYAQKFQGRVTMTRDTSTSTVYMELSSLRSEDTAVYYCASGWVYWGQGTLVTVSS
VL: DIQMTQSPSSLSASVGDRVTITCQASRDIKNYLAWYQQKPGKAPKLLIYAASSLQSGVPSRFSGSGSGTDFTLTISSLQPEDFATYYCQQSYSTPPTFGPGTKVDIK
Regarding B12, the “Mouse agonist-CTG: IC50, IgG1” value with mouse PD-1 on cells is less than 10 nM.

B13: PD1AB23 (antibody, IgG1, V domains shown)
VH: QVQLVQSGAEVKKPGASVKVSCKASGGTFSNYAISWVRQAPGQGLEWMGWMNPNSGNTGYAQKFQGRVTMTRDTSTSTVYMELSSLRSEDTAVYYCARVNYYYYYGMDVWGQGTTVTVSS
VL: DIQMTQSPSSLSASVGDRVTITCQASQDISNYLNWYQQKPGKAPKLLIYKASTLKSGVPSRFSGSGSGTDFTLTISSLQPEDFATYYCQQADNLPFTFGPGTKVDIK
Turning to B13, the “Mouse agonist-CTG: IC50, IgG1” value in the assay with mouse PD-1 on cells is less than 10 nM.

B14: MAdCAM Antibody Table 2 Clone 74 (antibody, human IgG1, V domains shown)
VH: QVQLVQSGAEVKKPGASVKVSCKASGYTFTGYYMHWVRQAPGQGLEWMGIINPSGGNTKYAQKFQGRVTMTRDTSTSTVYMELSSLRSEDTAVYYCTTADYYYYMDVWGKGTTVTVSS
VL: DIQMTQSPSSLSASVGDRVTITCRASQGISNYLAWYQQKPGKAPKLLIYAASSLQSGVPSRFSGSGSGTDFTLTISSLQPEDFATYYCQQYYSNADFGQGTKVEIK
In the case of B14, the binding result in assay [1] is “no binding”; in assay [2], “binds”; in assay [3], “no binding”.
